Data taken from the supplement of paper PMC10065799, “High-throughput profiling of sequence recognition by tyrosine kinases and SH2 domains using bacterial peptide display” (eLife, 2023).

What was measured:
Fer (mouse) = assay: phosphorylation enrichment, bacterial display (enrichment ratio); higher = better substrate or ligand; peptides without Tyr show the background
EPHB2 = EPHB2 (UniProt P29323); assay: as above
AncSZ = assay: as above
c-Src = assay: as above
Hck = Hck (UniProt P08631); assay: as above
FGFR1 = FGFR1 (UniProt P11362); assay: as above
Jak2 = Jak2 (UniProt O60674); assay: as above
Fyn = Fyn (UniProt P06241); assay: as above
MERTK = MERTK (UniProt Q12866); assay: as above
c-Abl (mouse) = assay: as above
EPHB1 = EPHB1 (UniProt P54762); assay: as above
Fes = Fes (UniProt P07332); assay: as above
FGFR3 = FGFR3 (UniProt P22607); assay: as above
SHP2-C SH2 = assay: SH2 binding enrichment of the phosphorylated peptide, bacterial display (enrichment ratio); higher = better substrate or ligand; peptides without Tyr show the background
c-Src SH2 = assay: as above
Grb2 SH2 = Grb2 SH2 (UniProt P62993); assay: as above
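Wherever SH2 binding enrichment of the phosphorylated peptide, bacterial display is given: peptide library displayed on the E. coli surface as eCPX fusions, selected cells deep-sequenced, score is each peptide's frequency after selection divided by its frequency in the input.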
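Wherever phosphorylation enrichment, bacterial display is given: 11-residue human phosphosite peptides and single-mutation variants displayed on the E. coli surface, counted by deep sequencing, each peptide's frequency after selection divided by its frequency in the unselected input library; frequency after pTyr selection over input frequency; kinase dosed for 20-30% of maximal phosphorylation in three min.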

Chain of FGFR1 (P11362 whole entry, looked up): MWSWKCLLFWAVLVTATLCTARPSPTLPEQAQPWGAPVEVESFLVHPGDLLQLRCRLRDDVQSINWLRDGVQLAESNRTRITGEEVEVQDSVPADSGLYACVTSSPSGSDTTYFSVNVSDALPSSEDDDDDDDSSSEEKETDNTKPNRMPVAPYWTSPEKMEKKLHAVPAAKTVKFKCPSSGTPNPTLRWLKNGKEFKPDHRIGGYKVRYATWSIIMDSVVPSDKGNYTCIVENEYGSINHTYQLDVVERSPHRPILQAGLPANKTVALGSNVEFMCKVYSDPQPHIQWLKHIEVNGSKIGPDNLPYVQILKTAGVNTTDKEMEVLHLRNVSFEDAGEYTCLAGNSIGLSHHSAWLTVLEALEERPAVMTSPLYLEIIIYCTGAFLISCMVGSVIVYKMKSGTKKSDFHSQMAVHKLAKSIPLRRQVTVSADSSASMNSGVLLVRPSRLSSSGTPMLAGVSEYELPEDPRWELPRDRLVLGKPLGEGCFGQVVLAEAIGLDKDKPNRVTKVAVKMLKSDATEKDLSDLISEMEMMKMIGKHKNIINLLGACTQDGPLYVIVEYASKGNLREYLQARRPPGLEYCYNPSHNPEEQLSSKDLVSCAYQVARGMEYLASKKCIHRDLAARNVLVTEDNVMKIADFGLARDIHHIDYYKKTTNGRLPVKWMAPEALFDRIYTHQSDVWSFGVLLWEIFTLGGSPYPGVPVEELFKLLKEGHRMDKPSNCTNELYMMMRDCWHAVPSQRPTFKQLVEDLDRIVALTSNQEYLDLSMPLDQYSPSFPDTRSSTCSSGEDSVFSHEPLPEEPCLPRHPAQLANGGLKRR
Chain of EPHB2 (P29323 whole entry, looked up): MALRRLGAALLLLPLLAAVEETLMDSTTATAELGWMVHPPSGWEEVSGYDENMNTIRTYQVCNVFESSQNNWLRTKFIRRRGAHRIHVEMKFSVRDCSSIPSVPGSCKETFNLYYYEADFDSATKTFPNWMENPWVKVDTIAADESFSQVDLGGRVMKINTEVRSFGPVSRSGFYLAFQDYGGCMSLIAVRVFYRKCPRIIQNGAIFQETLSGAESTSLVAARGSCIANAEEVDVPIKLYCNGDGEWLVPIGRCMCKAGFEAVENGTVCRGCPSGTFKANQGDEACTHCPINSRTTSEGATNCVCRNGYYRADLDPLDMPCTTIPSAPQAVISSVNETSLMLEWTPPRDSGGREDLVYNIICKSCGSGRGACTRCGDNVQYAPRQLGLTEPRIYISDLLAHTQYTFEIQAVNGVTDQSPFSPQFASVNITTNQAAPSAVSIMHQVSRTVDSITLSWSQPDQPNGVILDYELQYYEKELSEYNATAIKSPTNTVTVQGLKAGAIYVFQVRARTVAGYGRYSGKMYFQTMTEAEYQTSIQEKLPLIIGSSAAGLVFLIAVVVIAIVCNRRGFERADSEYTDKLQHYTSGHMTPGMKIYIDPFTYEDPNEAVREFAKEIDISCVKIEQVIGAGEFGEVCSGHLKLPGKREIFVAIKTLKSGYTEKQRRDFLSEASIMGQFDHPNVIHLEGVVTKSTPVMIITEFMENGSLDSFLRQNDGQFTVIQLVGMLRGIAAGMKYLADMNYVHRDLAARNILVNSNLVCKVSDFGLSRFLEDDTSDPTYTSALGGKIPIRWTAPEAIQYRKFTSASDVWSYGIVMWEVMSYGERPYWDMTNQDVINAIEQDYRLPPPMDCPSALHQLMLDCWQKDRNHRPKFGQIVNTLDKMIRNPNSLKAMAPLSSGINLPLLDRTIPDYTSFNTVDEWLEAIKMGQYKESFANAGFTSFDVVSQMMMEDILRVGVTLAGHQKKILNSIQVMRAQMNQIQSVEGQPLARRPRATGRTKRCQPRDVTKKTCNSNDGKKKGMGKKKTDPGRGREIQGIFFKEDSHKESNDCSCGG
Chain of Fes (P07332 whole entry, looked up): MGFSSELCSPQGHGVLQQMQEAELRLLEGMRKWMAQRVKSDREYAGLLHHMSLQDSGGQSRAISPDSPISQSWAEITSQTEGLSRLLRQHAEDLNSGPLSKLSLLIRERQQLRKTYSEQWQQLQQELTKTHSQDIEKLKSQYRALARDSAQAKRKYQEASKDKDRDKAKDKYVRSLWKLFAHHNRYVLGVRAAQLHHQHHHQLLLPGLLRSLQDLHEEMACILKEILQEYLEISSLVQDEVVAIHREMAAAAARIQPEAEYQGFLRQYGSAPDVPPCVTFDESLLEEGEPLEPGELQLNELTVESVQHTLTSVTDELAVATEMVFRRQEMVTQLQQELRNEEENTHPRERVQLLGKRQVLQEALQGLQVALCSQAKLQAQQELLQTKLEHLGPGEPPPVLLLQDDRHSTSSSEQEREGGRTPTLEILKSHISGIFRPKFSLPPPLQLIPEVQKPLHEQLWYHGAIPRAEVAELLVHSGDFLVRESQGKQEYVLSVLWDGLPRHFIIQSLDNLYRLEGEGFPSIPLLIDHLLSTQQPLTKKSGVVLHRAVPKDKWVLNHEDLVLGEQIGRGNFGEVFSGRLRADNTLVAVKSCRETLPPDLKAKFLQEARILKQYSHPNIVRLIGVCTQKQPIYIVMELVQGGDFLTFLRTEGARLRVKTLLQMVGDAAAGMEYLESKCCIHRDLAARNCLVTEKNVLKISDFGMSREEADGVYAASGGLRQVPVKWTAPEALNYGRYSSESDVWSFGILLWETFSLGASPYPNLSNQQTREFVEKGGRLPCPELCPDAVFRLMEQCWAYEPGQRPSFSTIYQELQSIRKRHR
Chain of Fyn (P06241 whole entry, looked up): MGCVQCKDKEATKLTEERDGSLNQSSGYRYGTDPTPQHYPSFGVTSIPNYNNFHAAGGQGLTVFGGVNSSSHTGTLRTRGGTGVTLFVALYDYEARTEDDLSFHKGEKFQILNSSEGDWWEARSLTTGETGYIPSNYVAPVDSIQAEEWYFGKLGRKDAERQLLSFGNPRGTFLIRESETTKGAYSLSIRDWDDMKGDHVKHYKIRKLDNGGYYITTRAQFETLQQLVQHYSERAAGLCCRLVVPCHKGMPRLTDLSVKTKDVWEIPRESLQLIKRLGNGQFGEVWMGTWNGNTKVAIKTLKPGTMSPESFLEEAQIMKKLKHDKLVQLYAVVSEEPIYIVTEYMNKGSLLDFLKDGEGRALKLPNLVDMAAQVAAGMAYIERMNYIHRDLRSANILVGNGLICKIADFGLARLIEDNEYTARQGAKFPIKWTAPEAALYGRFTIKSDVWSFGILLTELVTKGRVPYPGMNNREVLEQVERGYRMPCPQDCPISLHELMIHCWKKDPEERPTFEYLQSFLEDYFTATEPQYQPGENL
Chain of MERTK (Q12866 whole entry, looked up): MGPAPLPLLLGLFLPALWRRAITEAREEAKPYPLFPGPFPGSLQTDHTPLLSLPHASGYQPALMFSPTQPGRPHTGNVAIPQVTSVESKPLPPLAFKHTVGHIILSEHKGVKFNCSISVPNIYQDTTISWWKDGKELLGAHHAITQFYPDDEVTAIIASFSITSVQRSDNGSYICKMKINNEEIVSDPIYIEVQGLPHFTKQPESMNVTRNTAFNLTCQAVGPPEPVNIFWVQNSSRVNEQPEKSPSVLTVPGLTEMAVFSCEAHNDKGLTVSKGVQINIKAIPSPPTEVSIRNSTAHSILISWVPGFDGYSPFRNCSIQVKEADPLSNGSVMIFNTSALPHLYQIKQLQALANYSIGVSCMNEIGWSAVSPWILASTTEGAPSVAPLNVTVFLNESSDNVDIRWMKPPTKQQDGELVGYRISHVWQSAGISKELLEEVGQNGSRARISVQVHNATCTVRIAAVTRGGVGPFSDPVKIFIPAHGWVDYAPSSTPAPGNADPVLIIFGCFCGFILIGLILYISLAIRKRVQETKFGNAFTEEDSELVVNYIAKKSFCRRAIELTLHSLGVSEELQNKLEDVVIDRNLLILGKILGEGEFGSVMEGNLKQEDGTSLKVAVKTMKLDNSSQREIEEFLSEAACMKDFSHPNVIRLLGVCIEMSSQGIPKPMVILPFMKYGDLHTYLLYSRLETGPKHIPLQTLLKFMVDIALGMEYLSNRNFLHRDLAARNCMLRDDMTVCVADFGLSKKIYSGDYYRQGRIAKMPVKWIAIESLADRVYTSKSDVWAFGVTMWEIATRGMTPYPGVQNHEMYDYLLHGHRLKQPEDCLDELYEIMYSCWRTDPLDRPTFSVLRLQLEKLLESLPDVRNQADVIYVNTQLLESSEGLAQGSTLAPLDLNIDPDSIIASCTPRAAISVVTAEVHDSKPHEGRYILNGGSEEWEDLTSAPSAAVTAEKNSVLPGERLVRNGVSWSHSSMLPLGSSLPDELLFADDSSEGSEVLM
Chain of FGFR3 (P22607 whole entry, looked up): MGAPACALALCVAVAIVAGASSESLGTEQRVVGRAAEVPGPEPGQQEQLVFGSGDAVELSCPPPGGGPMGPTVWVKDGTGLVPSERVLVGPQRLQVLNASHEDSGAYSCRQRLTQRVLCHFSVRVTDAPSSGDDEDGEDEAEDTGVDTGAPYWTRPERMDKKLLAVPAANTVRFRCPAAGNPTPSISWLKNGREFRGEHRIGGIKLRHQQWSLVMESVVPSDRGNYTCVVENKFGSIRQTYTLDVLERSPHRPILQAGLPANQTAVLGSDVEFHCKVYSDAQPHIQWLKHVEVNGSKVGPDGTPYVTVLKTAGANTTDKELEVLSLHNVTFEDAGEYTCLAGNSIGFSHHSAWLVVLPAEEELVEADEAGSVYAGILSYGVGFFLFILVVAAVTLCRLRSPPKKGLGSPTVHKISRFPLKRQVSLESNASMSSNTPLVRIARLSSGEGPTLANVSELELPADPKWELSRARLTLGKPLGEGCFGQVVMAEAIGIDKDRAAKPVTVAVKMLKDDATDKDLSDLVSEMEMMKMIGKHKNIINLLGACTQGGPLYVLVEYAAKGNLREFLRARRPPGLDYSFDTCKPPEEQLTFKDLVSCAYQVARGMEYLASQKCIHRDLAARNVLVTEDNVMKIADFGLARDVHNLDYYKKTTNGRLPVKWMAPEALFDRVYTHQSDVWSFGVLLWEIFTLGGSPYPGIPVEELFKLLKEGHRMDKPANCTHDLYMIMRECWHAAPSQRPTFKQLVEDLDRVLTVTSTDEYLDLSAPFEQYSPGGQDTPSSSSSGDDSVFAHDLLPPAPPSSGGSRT

Sequence	SH2 binding enrichment (SHP2-C SH2)	SH2 binding enrichment (c-Src SH2)	SH2 binding enrichment (Grb2 SH2)	phosphorylation enrichment (Fer (mouse))	phosphorylation enrichment (EPHB2)	phosphorylation enrichment (AncSZ)	phosphorylation enrichment (c-Src)	phosphorylation enrichment (Hck)	phosphorylation enrichment (FGFR1)	phosphorylation enrichment (Jak2)	phosphorylation enrichment (Fyn)	phosphorylation enrichment (MERTK)	phosphorylation enrichment (c-Abl (mouse))	phosphorylation enrichment (EPHB1)	phosphorylation enrichment (Fes)	phosphorylation enrichment (FGFR3)
WRPFGYPRCRR [BCS1L_Y181_R184C]	0.39	0.459	0.714	0.447	0.478	0.599	0.528	0.454	0.505	0.485	0.498	0.505	0.403	0.444	0.509	0.459
WRVIGYHVVVW [ATP13A2_Y50]	0.915	0.727	1.08	0.587	0.692	1.21	0.501	0.568	0.551	1.19	0.444	0.417	0.903	0.695	1.25	0.828
YDKEYYSVHNK [MET_Y1235]	0.399	0.478	0.759	0.425	0.428	1.36	0.881	0.922	4.29	1.01	0.455	0.441	0.684	0.542	0.754	2.95
YEREQYADRTR [RBM4_Y355_A359T]	0.717	0.61	0.878	0.494	0.419	0.897	0.443	0.469	0.566	0.603	0.439	0.448	0.55	0.343	0.706	0.472
YGCGMYSHLQG [LGR4_Y848_D844G]	0.991	1.96	0.854	1.24	1.07	1.2	2.87	4.44	1.06	0.723	1.51	5.25	1.49	1.06	1.07	0.998
YKGKKYKPLDL [RPL35_Y78]	0.955	0.429	0.821	0.537	0.391	0.462	0.541	0.404	0.405	0.51	0.511	0.581	0.508	0.283	0.541	0.45

Second part, led by results:

SH2 binding enrichment (SHP2-C SH2)	SH2 binding enrichment (c-Src SH2)	SH2 binding enrichment (Grb2 SH2)	Sequence	phosphorylation enrichment (Fer (mouse))	phosphorylation enrichment (EPHB2)	phosphorylation enrichment (AncSZ)	phosphorylation enrichment (c-Src)	phosphorylation enrichment (Hck)	phosphorylation enrichment (FGFR1)	phosphorylation enrichment (Jak2)	phosphorylation enrichment (Fyn)	phosphorylation enrichment (MERTK)	phosphorylation enrichment (c-Abl (mouse))	phosphorylation enrichment (EPHB1)	phosphorylation enrichment (Fes)	phosphorylation enrichment (FGFR3)
0.582	0.481	0.733	WQQQSYLDSGS [CTNNB1_Y30_I35S]	0.675	0.528	0.781	0.363	0.45	0.561	0.581	0.423	0.397	0.56	0.436	0.741	0.536
0.693	0.587	0.941	WVFNHYRWFIW [BRCA2_Y2624_I2627F_YF]	0.575	0.636	1.13	0.409	0.482	0.49	1.25	0.462	0.463	0.898	0.654	1.32	0.813
0.685	0.501	0.872	YAANYYKLLGN [ROR2_Y646_D644N]	0.506	0.546	0.566	0.462	0.406	1.76	0.917	0.46	0.832	0.579	0.566	0.609	1.35
0.545	2.04	0.787	YADPYYDYEIE [ZC3H18_Y372]	1.58	1.94	1.95	3.01	1.06	9.62	1.24	2.52	2.18	0.853	2.05	1.31	7.39
0.648	0.495	0.891	YDGKDYIALKE [HLA-A_Y147_N151K]	0.49	0.648	1.12	0.377	0.49	0.702	1.03	0.493	0.439	0.72	0.669	0.913	0.739
1.24	11.8	1.48	YETVKYINNER [ABCB7_Y345_F346I]	10.5	0.623	0.858	1.1	1.96	1.22	0.803	1.22	0.903	0.619	0.73	0.943	0.832
0.612	0.395	0.711	YGSSSSGGAGG [RPA2_Y14_Y14S]	0.437	0.461	0.604	0.337	0.359	0.403	0.392	0.389	0.355	0.317	0.304	0.535	0.347
